Data reported in paper PMC6954215, “Structures of β-glycosidase LXYL-P1-2 reveals the product binding state of GH3 family and a specific pocket for Taxol recognition” (Communications Biology, 2020).

How the values were obtained:
[1] = target: β-xylosidase/glucosidase LXYL-P1-2 (Lentinula edodes); assay: SEC; molecular weight by gel filtration; conditions not given
[2] = target: β-xylosidase/glucosidase LXYL-P1-2 (Lentinula edodes); assay: crystal structure; native crystal, endoglycosidase-treated protein at 10 mg/ml, hanging drop at 16 °C, 13% PEG3350, 0.1 M Tris-HCl pH 8.5, 0.2% MgCl2; 2.4 Å; tetramer in the asymmetric unit
[3] = target: T1, LXYL-P1-2 (Lentinula edodes, UniProt G8GLP2, E529Q); assay: X-ray crystallography, […] Å; format: binding; details: co-crystallised with XDT, cleaved in crystal; product complex with xylose; 0.1 M Hepes pH 7.5, 16 °C
T1 construct: expressed in Pichia pastoris GS115 from pPIC3.5K-lxyl-p1-2; KEX2 cleavage after Arg35, mature N-terminus Asp36; endoglycosidase-treated for crystals; tetramer

Row | stoichiometry N [1] | stoichiometry N [2] | Compound | X-ray crystallography, 2.27 Å [3]
1 | 4 | 4 | β-xylosidase/glucosidase LXYL-P1-2 (enzyme) | –
2 | – | – | OC1OC[C@@H](O)[C@H](O)[C@H]1O (stereo partly shown) [xylose] | The electron density clearly shows the existence of xylose and DT
3 | – | – | CC(=O)O[C@@]12CO[C@@H]1C[C@H](O)[C@@]1(C)C(=O)[C@H](O)C3=C(C)[C@@H](OC(=O)[C@H](O)[C@@H](NC(=O)c4ccccc4)c4ccccc4)C[C@@](O)([C@@H](OC(=O)c4ccccc4)[C@H]21)C3(C)C [10-deacetyltaxol] | The electron density clearly shows the existence of xylose and DT
